Measured values taken from US20260234667A1.

Biological target: human CXCR3 isoform 1 (human) (UniProt P49682)
Assay: cell-based or functional assay

UniProt P49682, sequence (P49682 whole entry, canonical isoform): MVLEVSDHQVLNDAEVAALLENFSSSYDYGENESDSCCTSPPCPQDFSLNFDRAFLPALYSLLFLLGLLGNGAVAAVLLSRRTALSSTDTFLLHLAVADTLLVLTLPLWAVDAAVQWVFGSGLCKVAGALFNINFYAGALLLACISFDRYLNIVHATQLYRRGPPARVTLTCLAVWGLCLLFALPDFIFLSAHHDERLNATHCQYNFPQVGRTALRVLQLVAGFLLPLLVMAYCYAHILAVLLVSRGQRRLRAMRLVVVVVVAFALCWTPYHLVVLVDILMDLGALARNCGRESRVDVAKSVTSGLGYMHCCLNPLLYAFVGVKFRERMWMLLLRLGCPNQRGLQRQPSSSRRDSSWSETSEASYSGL

B1: ITAC (CXCL11) (ligand, UniProt O14625 22-94, looked up, species assumed)
C-X-C motif chemokine 11: FPMFKRGRCLCIGPGVKAVKVADIEKASIMYPSNNCDKIEVIITLKENKGQRCLNPKSKQARLIIKKVERKNF
  migration of B cells to 100 ng/ml ITAC (CXCL11), fold increase against control cells: 10 fold
  migration of CD4 cells to 100 ng/ml ITAC (CXCL11), fold increase against control cells: > 4 fold
  migration of CD8 cells to 100 ng/ml ITAC (CXCL11), fold increase against control cells: 2.5 fold
